According to patent publication US20240218070A1 (MERUS N V, published 2024):

Experiments:
[1] = biological target: T1, human TGF-βRII expressed on cells (human, UniProt P37173 23-567); assay: cell-based or functional assay
[2] = biological target: T1, human TGF-βRII expressed on cells; assay: cell-based or functional assay; remark: listed apart in the source

T1 sequence (P37173 23-567 limits assumed, form in doubt): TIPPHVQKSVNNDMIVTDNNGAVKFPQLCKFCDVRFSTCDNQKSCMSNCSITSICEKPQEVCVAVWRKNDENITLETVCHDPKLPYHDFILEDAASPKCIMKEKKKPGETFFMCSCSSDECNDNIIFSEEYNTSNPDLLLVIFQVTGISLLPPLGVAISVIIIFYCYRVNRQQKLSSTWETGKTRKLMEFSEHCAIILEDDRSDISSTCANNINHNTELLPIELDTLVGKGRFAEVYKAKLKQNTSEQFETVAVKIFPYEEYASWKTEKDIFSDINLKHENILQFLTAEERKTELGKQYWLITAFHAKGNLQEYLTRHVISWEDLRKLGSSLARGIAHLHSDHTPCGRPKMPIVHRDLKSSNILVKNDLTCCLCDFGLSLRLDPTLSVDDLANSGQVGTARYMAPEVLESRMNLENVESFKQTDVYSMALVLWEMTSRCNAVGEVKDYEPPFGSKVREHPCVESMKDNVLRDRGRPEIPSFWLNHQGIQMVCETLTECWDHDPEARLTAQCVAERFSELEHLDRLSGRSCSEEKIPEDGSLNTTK

- IL-11 IC50, TGF-β1-stimulated primary colon CAFs [1]: 0.0526 µg/mL
- pSMAD2 IC50, TGF-β1-stimulated primary colon CAFs [1]: 0.00929 ug/ml
- Primary CAF IL-11 IC50, BLDA [2]: 1.04 µg/mL
- Primary CAF IL-11 IC50, COAD(1) [2]: 1.22 µg/mL
- Primary CAF IL-11 IC50, COAD(2) [2]: 0.313 µg/mL
- Primary CAF IL-11 IC50, GBM [2]: 0.264 µg/mL
- Primary CAF IL-11 IC50, HNSC [2]: 20.2 µg/mL
- Primary CAF IL-11 IC50, LUAD [2]: 0.765 µg/mL
- Primary CAF IL-11 IC50, LUSC [2]: 0.085 µg/mL
- Primary CAF IL-11 IC50, MEL [2]: 0.588 µg/mL
- Primary CAF IL-11 IC50, OV [2]: 0.191 µg/mL
- Primary CAF IL-11 IC50, PAAD [2]: 0.38 µg/mL
- Primary CAF pSMAD IC50, BLDA [2]: 0.087 ug/ml
- Primary CAF pSMAD IC50, COAD(1) [2]: 0.081 ug/ml
- Primary CAF pSMAD IC50, COAD(2) [2]: 0.023 ug/ml
- Primary CAF pSMAD IC50, GBM [2]: 0.048 ug/ml
- Primary CAF pSMAD IC50, HNSC [2]: 0.714 ug/ml
- Primary CAF pSMAD IC50, LUAD [2]: 0.078 ug/ml
- Primary CAF pSMAD IC50, LUSC [2]: 0.125 ug/ml
- Primary CAF pSMAD IC50, MEL [2]: 0.117 ug/ml
- Primary CAF pSMAD IC50, OV [2]: 0.188 ug/ml
- Primary CAF pSMAD IC50, PAAD [2]: 0.126 ug/ml
B1: Analog reference TGF-βRII antibody TGF1 (antibody, human IgG1, kappa, V domains shown)
VH: QLQVQESGPGLVKPSETLSLTCTVSGGSISNSYFSWGWIRQPPGKGLEWIGSFYYGEKTYYNPSLKSRATISIDTSKSQFSLKLSSVTAADTAVYYCPRGPTMIRGVIDSWGQGTLVTVSS
VL: EIVLTQSPATLSLSPGERATLSCRASQSVRSYLAWYQQKPGQAPRLLIYDASNRATGIPARFSGSGSGTDFTLTISSLEPEDFAVYYCQQRSNWPPTFGQGTKVEIKR
